To fix the notation:
B1: KCNK9 (parent)
chain: CFITLTTIGFGDYVALQTKGALQK

Consider 94 variants from the supplement of paper PMC10567573.
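Further: lentivirally expressed fusions sorted by FACS into six bins by GFP to DsRed ratio, PSI derived from sequencing read proportions per bin multiplied by bin number.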

This series covers variants of B1. Kind of series: protein stability index of a GFP-peptide fusion (GPS, HEK-293T) (PSI 1-6); higher = more stable. The note with it: c terminus: a fixed tail appended.
As for CFITLTTIGFGDYVALQTKGALQA [K24A], the protein stability index was determined as 2.85.
As for CFITLTTIGFGDYVALQTKGALQV [K24V], the protein stability index amounted to 3.03.
In the case of CFITLTTIGFGDYVALQTKGALQT [K24T], the protein stability index is 3.42.
The result for CFITLTTIGFGDYVALQTKGALQL [K24L] reads 2.51; that for CFITLTTIGFGDYVALQTKGALQY [K24Y], 3.16.
Take CFITLTTIGFGDYVALQTKGALQM [K24M]: the protein stability index was determined as 2.88.
As to CFITLTTIGFGDYVALQTKGALQQ [K24Q], the protein stability index worked out at 2.33.
Take CFITLTTIGFGDYVALQTKGALQP [K24P]: the protein stability index is 2.96.
With CFITLTTIGFGDYVALQTKGALQS [K24S], the protein stability index stood at 3.33.
The result for CFITLTTIGFGDYVALQTKGALQE [K24E] reads 3.56; that for CFITLTTIGFGDYVALQTKGALQF [K24F], 3.25; that for CFITLTTIGFGDYVALQTKGALQD [K24D], 3.71.
In the case of CFITLTTIGFGDYVALQTKGALQC [K24C], the protein stability index worked out at 2.9.
The result for CFITLTTIGFGDYVALQTKGALQG [K24G] reads 2.28.
As to CFITLTTIGFGDYVALQTKGALQN [K24N], the protein stability index was 3.29.
The result for CFITLTTIGFGDYVALQTKGALQI [K24I] reads 2.09; that for CFITLTTIGFGDYVALQTKGALQH [K24H], 2.47.
Take CFITLTTIGFGDYVALQTKGPLQK [A21P]: the protein stability index stood at 2.97.
As for CFITLTTIGFGDYVALQTKGHLQK [A21H], the protein stability index was found to be 3.21.
For the variant CFITLTTIGFGDYVALQTKGQLQK [A21Q], the protein stability index came out at 2.21.
The result for CFITLTTIGFGDYVALQTKGGLQK [A21G] reads 2.1; that for CFITLTTIGFGDYVALQTKGELQK [A21E], 3.6; that for CFITLTTIGFGDYVALQTKGNLQK [A21N], 2.39.
The result for CFITLTTIGFGDYVALQTKGCLQK [A21C] reads 3.22; that for CFITLTTIGFGDYVALQTKGTLQK [A21T], 2.56.
Consider CFITLTTIGFGDYVALQTKGKLQK [A21K], for which the protein stability index turned out to be 3.05.
The figure for CFITLTTIGFGDYVALQTKGWLQK [A21W] is 3.01; for CFITLTTIGFGDYVALQTKGSLQK [A21S] it is 2.43.
As to CFITLTTIGFGDYVALQTKGILQK [A21I], the protein stability index was 2.44.
As for CFITLTTIGFGDYVALQTKGVLQK [A21V], the protein stability index was found to be 2.29.
In the case of CFITLTTIGFGDYVALQTKGLLQK [A21L], the protein stability index was found to be 3.54.
The result for CFITLTTIGFGDYVALQTKGMLQK [A21M] reads 1.99; that for CFITLTTIGFGDYVALQTKGRLQK [A21R], 3.3.
The result for CFITLTTIGFGDYVALQTKGFLQK [A21F] reads 3.44; that for CFITLTTIGFGDYVALQTKGDLQK [A21D], 2.88.
For the variant CFITLTTIGFGDYVALQTSGALQK [K19S], the protein stability index worked out at 2.11.
The result for CFITLTTIGFGDYVALQTAGALQK [K19A] reads 3.43; that for CFITLTTIGFGDYVALQTNGALQK [K19N], 4.09; that for CFITLTTIGFGDYVALQTWGALQK [K19W], 2.13.
Consider CFITLTTIGFGDYVALQTIGALQK [K19I], for which the protein stability index amounted to 2.23.
As for CFITLTTIGFGDYVALQTEGALQK [K19E], the protein stability index came to 2.46.
As for CFITLTTIGFGDYVALQTPGALQK [K19P], the protein stability index was 4.04.
The result for CFITLTTIGFGDYVALQTVGALQK [K19V] reads 3.26.
The result for CFITLTTIGFGDYVALQTTGALQK [K19T] reads 4.24; that for CFITLTTIGFGDYVALQTQGALQK [K19Q], 2.16; that for CFITLTTIGFGDYVALQTYGALQK [K19Y], 3.38.
The result for CFITLTTIGFGDYVALQTRGALQK [K19R] reads 3.19; that for CFITLTTIGFGDYVALQTHGALQK [K19H], 1.98; that for CFITLTTIGFGDYVALQTLGALQK [K19L], 2.36.
For the variant CFITLTTIGFGDYVALQTDGALQK [K19D], the protein stability index stood at 3.22.
In the case of CFITLTTIGFGDYVALQTGGALQK [K19G], the protein stability index worked out at 1.24.
The result for CFITLTTIGFGDYVALQTFGALQK [K19F] reads 1.95; that for CFITLTTIGFGDYVALQTKGADQK [L22D], 4.33; that for CFITLTTIGFGDYVALQTKGAIQK [L22I], 2.06.
The figure for CFITLTTIGFGDYVALQTKGATQK [L22T] is 3.37; for CFITLTTIGFGDYVALQTKGAYQK [L22Y] it is 2.37; for CFITLTTIGFGDYVALQTKGACQK [L22C] it is 2.29.
In the case of CFITLTTIGFGDYVALQTKGAMQK [L22M], the protein stability index worked out at 3.38.
The result for CFITLTTIGFGDYVALQTKGARQK [L22R] reads 2.12.
CFITLTTIGFGDYVALQTKGAWQK [L22W]: the protein stability index came out at 2.21.
The figure for CFITLTTIGFGDYVALQTKGAQQK [L22Q] is 2.46; for CFITLTTIGFGDYVALQTKGAPQK [L22P] it is 2.56.
On to CFITLTTIGFGDYVALQTKGAKQK [L22K], for which the protein stability index was found to be 2.4.
Take CFITLTTIGFGDYVALQTKGAAQK [L22A]: the protein stability index was determined as 3.37.
The result for CFITLTTIGFGDYVALQTKGASQK [L22S] reads 3.93; that for CFITLTTIGFGDYVALQTKGAEQK [L22E], 3.67.
The result for CFITLTTIGFGDYVALQTKGAVQK [L22V] reads 2.62; that for CFITLTTIGFGDYVALQTKGAGQK [L22G], 2.86.
The figure for CFITLTTIGFGDYVALQTKGANQK [L22N] is 1.91; for CFITLTTIGFGDYVALQTKGAFQK [L22F] it is 2.72.
Regarding CFITLTTIGFGDYVALQYKGALQK [T18Y], the protein stability index stood at 3.26.
In the case of CFITLTTIGFGDYVALQTKFALQK [G20F], the protein stability index is 3.39.
The figure for CFITLTTIGFGDYVALQTKTALQK [G20T] is 5.14; for CFITLTTIGFGDYVALQTKDALQK [G20D] it is 3.25.
As for CFITLTTIGFGDYVALQTKYALQK [G20Y], the protein stability index stood at 2.54.
With CFITLTTIGFGDYVALQTKHALQK [G20H], the protein stability index is 2.6.
The result for CFITLTTIGFGDYVALQTKIALQK [G20I] reads 2.58.
The result for CFITLTTIGFGDYVALQTKNALQK [G20N] reads 3.17; that for CFITLTTIGFGDYVALQTKQALQK [G20Q], 3.38.
The figure for CFITLTTIGFGDYVALQTKSALQK [G20S] is 3.74; for CFITLTTIGFGDYVALQTKRALQK [G20R] it is 3.65.
Regarding CFITLTTIGFGDYVALQTKCALQK [G20C], the protein stability index was 3.1.
The result for CFITLTTIGFGDYVALQTKWALQK [G20W] reads 3.87.
On to CFITLTTIGFGDYVALQTKEALQK [G20E], for which the protein stability index is 3.59.
The result for CFITLTTIGFGDYVALQTKPALQK [G20P] reads 2.55; that for CFITLTTIGFGDYVALQTKAALQK [G20A], 3.49; that for CFITLTTIGFGDYVALQTKGALKK [Q23K], 2.96.
The result for CFITLTTIGFGDYVALQTKGALEK [Q23E] reads 1.94; that for CFITLTTIGFGDYVALQTKGALSK [Q23S], 2.2.
As to CFITLTTIGFGDYVALQTKGALHK [Q23H], the protein stability index came to 3.06.
As for CFITLTTIGFGDYVALQTKGALTK [Q23T], the protein stability index came to 3.26.
The result for CFITLTTIGFGDYVALQTKGALRK [Q23R] reads 1.72.
For CFITLTTIGFGDYVALQTKGALNK [Q23N], the protein stability index came out at 2.43.
Take CFITLTTIGFGDYVALQTKGALVK [Q23V]: the protein stability index came to 4.51.
